What was measured:
PSMA Fab [1] = target: T1, PSMA Fab; assay: clonal phage ELISA on biotinylated PSMA Fab captured on neutravidin, anti-M13 HRP detection, blocking buffer alone
T1 construct: In the panning ELISA the PSMA Fab was biotinylated and captured on neutravidin coated plates; also called Anti-PSMA Fab; 006 PSMA Fab
Description: (§1) Clonal phage were harvested as crude supernatants and screened via standard ELISAs. […] Prior to the addition of clonal phage. wells were incubated with blocking buffer and PSMA antigen or blocking buffer alone. Without washing or aspirating, clonal phage supernatants were then added to the wells and incubated for a short time. Wells were then washed followed by detection of bound phage using a horse radish conjugated anti-M13 antibody.

PSMA Fab [2] = target: T1, PSMA Fab; assay: clonal phage ELISA on biotinylated PSMA Fab captured on neutravidin, anti-M13 HRP detection, wells pre-incubated with saturating PSMA antigen as competitor
Description: as §1

PSMA Fab [3] = target: T2, PSMA Fab (biotinylated (site not stated)); assay: phage ELISA on captured PSMA Fab pre-incubated with PSMA antigen as competitor, anti-M13-HRP detection
T2 construct: also called Anti-PSMA Fab; 006 PSMA Fab

PSMA Fab [4] = target: T2, PSMA Fab; assay: phage ELISA: clonal phage on biotinylated PSMA Fab captured on neutravidin, anti-M13-HRP detection, blocking buffer alone
Description: as §1

PSMA Fab [5] = target: T3, PSMA Fab (biotinylated (site not stated)); assay: clonal phage ELISA on captured PSMA Fab, wells pre-incubated with PSMA antigen as competitor; anti-M13 HRP detection
T3 construct: Biotinylated PSMA Fab captured on neutravidin coated plates in the phage ELISA; also called Anti-PSMA Fab; 006 PSMA Fab

PSMA Fab [6] = target: T3, PSMA Fab; assay: clonal phage ELISA on biotinylated PSMA Fab captured on neutravidin plates, blocking buffer alone; anti-M13 HRP detection
Description: as §1

PSMA Fab (006 PSMA Fab) [7] = target: T4, PSMA Fab (006 PSMA Fab) (biotinylated for capture on neutravidin plates (site not stated)); assay: phage ELISA as above, wells pre-incubated with PSMA antigen as competitor
T4 construct: also called Anti-PSMA Fab; anti-PSMA Fab

PSMA Fab (006 PSMA Fab) [8] = target: T4, PSMA Fab (006 PSMA Fab); assay: phage ELISA: clonal phage supernatant on biotinylated PSMA Fab captured on neutravidin plate, anti-M13-HRP detection
Description: as §1

B1: Phage-3315 (peptide)
peptide: VEIACKPQWMCLGF
Phage binding ELISA signal, Anti-PSMA Fab (PSMA Fab [1]): 1.86 | Phage binding ELISA signal, Anti-PSMA Fab with PSMA antigen (PSMA Fab [2]): 0.0766

B2: Phage-3292 (peptide)
peptide: YEMRCVPDWMCVGL
notes: Peptide-180 library clone, tested as clonal phage supernatant with the peptide fused to pIII
Phage binding ELISA signal, Anti-PSMA Fab with PSMA antigen (PSMA Fab [3]): 0.0906 | Phage binding ELISA signal, Anti-PSMA Fab (PSMA Fab [4]): 1.89

B3: Phage-3326 (peptide)
peptide: QVVMCTPEWMCSGF
phage binding ELISA signal (PSMA Fab [5]): 0.0905 | phage binding ELISA signal (PSMA Fab [6]): 1.85

B4: Phage-3328 (peptide)
peptide: VAPICRPSWMCEWL
phage binding ELISA signal (PSMA Fab [5]): 0.0837 | phage binding ELISA signal (PSMA Fab [6]): 1.84

B5: Phage-3313 (peptide)
peptide: AEHVCRPAWMCTVF
Phage binding ELISA signal, Anti-PSMA Fab (PSMA Fab [1]): 1.86 | Phage binding ELISA signal, Anti-PSMA Fab with PSMA antigen (PSMA Fab [2]): 0.0585

B6: Phage-3291 (peptide)
peptide: PIPRCQPLWMCHGF
notes: as for B2
Phage binding ELISA signal, Anti-PSMA Fab with PSMA antigen (PSMA Fab [3]): 0.085 | Phage binding ELISA signal, Anti-PSMA Fab (PSMA Fab [4]): 1.89

B7: Phage-3282 (peptide)
peptide: MEHWCVPAWMCSGF
notes: as for B2
Phage binding ELISA signal, Anti-PSMA Fab with PSMA antigen (PSMA Fab [3]): 0.264 | Phage binding ELISA signal, Anti-PSMA Fab (PSMA Fab [4]): 1.89

B8: Phage-3327 (peptide)
peptide: IGVVCKPLWMCHGF
phage binding ELISA signal (PSMA Fab [5]): 0.0971 | phage binding ELISA signal (PSMA Fab [6]): 1.85

B9: Phage-3278 (peptide)
peptide: LPPMCIPQWMCMHF
notes: Peptide-180 library clone, tested as clonal M13 phage displaying the peptide fused to pIII
Phage binding ELISA signal, Anti-PSMA Fab in presence of PSMA (PSMA Fab (006 PSMA Fab) [7]): 0.0592 | Phage binding ELISA signal, Anti-PSMA Fab (PSMA Fab (006 PSMA Fab) [8]): 1.9

B10: Phage-3320 (peptide)
peptide: VGHVCIPSWMCDGM
Phage binding ELISA signal, Anti-PSMA Fab (PSMA Fab [1]): 1.86 | Phage binding ELISA signal, Anti-PSMA Fab with PSMA antigen (PSMA Fab [2]): 0.0683

B11: Phage-3285 (peptide)
peptide: FDTYCKPAWMCEGF
notes: as for B2
Phage binding ELISA signal, Anti-PSMA Fab with PSMA antigen (PSMA Fab [3]): 0.0818 | Phage binding ELISA signal, Anti-PSMA Fab (PSMA Fab [4]): 1.89

B12: Phage-3281 (peptide)
peptide: VERMCKPEWMCFGF
notes: Peptide-180 library clone, tested as clonal phage supernatant with the peptide fused to pIII of the bacteriophage
Phage binding ELISA signal, Anti-PSMA Fab with PSMA antigen (PSMA Fab [3]): 0.102 | Phage binding ELISA signal, Anti-PSMA Fab (PSMA Fab [4]): 1.9

B13: Phage-3318 (peptide)
peptide: LPIMCKPQWMCNGF
Phage binding ELISA signal, Anti-PSMA Fab (PSMA Fab [1]): 1.86 | Phage binding ELISA signal, Anti-PSMA Fab with PSMA antigen (PSMA Fab [2]): 0.08

B14: Phage-3322 (peptide)
peptide: IMPKCVPSWMCTGL
phage binding ELISA signal (PSMA Fab [5]): 0.153 | phage binding ELISA signal (PSMA Fab [6]): 1.85

B15: Phage-3277 (peptide)
peptide: PARMCVPAWMCSVL
notes: as for B9
Phage binding ELISA signal, Anti-PSMA Fab in presence of PSMA (PSMA Fab (006 PSMA Fab) [7]): 0.0732 | Phage binding ELISA signal, Anti-PSMA Fab (PSMA Fab (006 PSMA Fab) [8]): 1.9

B16: Phage-3321 (peptide)
peptide: WVIKCVPSWMCAGL
Phage binding ELISA signal, Anti-PSMA Fab (PSMA Fab [1]): 1.85 | Phage binding ELISA signal, Anti-PSMA Fab with PSMA antigen (PSMA Fab [2]): 0.0907

B17: Phage-3294 (peptide)
peptide: TDVMCVPQWMCDGF
notes: as for B2
Phage binding ELISA signal, Anti-PSMA Fab with PSMA antigen (PSMA Fab [3]): 0.106 | Phage binding ELISA signal, Anti-PSMA Fab (PSMA Fab [4]): 1.89

B18: Phage-3314 (peptide)
peptide: LLEMCKPHWMCVGF
Phage binding ELISA signal, Anti-PSMA Fab (PSMA Fab [1]): 1.86 | Phage binding ELISA signal, Anti-PSMA Fab with PSMA antigen (PSMA Fab [2]): 0.085

B19: Phage-3329 (peptide)
peptide: VDRLCSPAWMCLGF
phage binding ELISA signal (PSMA Fab [5]): 0.0785 | phage binding ELISA signal (PSMA Fab [6]): 1.84

B20: Phage-3325 (peptide)
peptide: MYIHCVPEWMCRGF
phage binding ELISA signal (PSMA Fab [5]): 0.0941 | phage binding ELISA signal (PSMA Fab [6]): 1.85

B21: Phage-3316 (peptide)
peptide: QEFRCVPEWMCIGL
Phage binding ELISA signal, Anti-PSMA Fab (PSMA Fab [1]): 1.86 | Phage binding ELISA signal, Anti-PSMA Fab with PSMA antigen (PSMA Fab [2]): 0.0577

B22: Phage-3293 (peptide)
peptide: ETLMCIPNWMCDGF
notes: as for B2
Phage binding ELISA signal, Anti-PSMA Fab with PSMA antigen (PSMA Fab [3]): 0.0837 | Phage binding ELISA signal, Anti-PSMA Fab (PSMA Fab [4]): 1.89

B23: Phage-3308 (peptide)
peptide: NWKVCEPTWMCEGF
Phage binding ELISA signal, Anti-PSMA Fab (PSMA Fab [1]): 1.87 | Phage binding ELISA signal, Anti-PSMA Fab with PSMA antigen (PSMA Fab [2]): 0.0575

B24: Phage-3283 (peptide)
peptide: FDHLCIPVWMCKGF
notes: as for B2
Phage binding ELISA signal, Anti-PSMA Fab with PSMA antigen (PSMA Fab [3]): 0.0828 | Phage binding ELISA signal, Anti-PSMA Fab (PSMA Fab [4]): 1.89

B25: Phage-3286 (peptide)
peptide: PTLRCEPLWMCAGF
notes: as for B2
Phage binding ELISA signal, Anti-PSMA Fab with PSMA antigen (PSMA Fab [3]): 0.0911 | Phage binding ELISA signal, Anti-PSMA Fab (PSMA Fab [4]): 1.89

B26: Phage-3284 (peptide)
peptide: ELQRCIPQWMCVGL
notes: as for B2
Phage binding ELISA signal, Anti-PSMA Fab with PSMA antigen (PSMA Fab [3]): 0.0731 | Phage binding ELISA signal, Anti-PSMA Fab (PSMA Fab [4]): 1.89

B27: Phage-3317 (peptide)
peptide: SSVMCIPQWMCSGF
Phage binding ELISA signal, Anti-PSMA Fab (PSMA Fab [1]): 1.86 | Phage binding ELISA signal, Anti-PSMA Fab with PSMA antigen (PSMA Fab [2]): 0.0899

B28: Phage-3289 (peptide)
peptide: EDYVCRPTWMCVGF
notes: as for B2
Phage binding ELISA signal, Anti-PSMA Fab with PSMA antigen (PSMA Fab [3]): 0.0755 | Phage binding ELISA signal, Anti-PSMA Fab (PSMA Fab [4]): 1.89

B29: Phage-3312 (peptide)
peptide: DLRWCIPEWMCIGI
Phage binding ELISA signal, Anti-PSMA Fab (PSMA Fab [1]): 1.86 | Phage binding ELISA signal, Anti-PSMA Fab with PSMA antigen (PSMA Fab [2]): 0.0809

B30: Phage-3319 (peptide)
peptide: LQVMCVPRWMCEGF
Phage binding ELISA signal, Anti-PSMA Fab (PSMA Fab [1]): 1.86 | Phage binding ELISA signal, Anti-PSMA Fab with PSMA antigen (PSMA Fab [2]): 0.104

B31: Phage-3287 (peptide)
peptide: ESLLCKPKWMCDWL
notes: as for B2
Phage binding ELISA signal, Anti-PSMA Fab with PSMA antigen (PSMA Fab [3]): 0.0996 | Phage binding ELISA signal, Anti-PSMA Fab (PSMA Fab [4]): 1.89

B32: Phage-3310 (peptide)
peptide: IEKLCKPQWMCEGF
Phage binding ELISA signal, Anti-PSMA Fab (PSMA Fab [1]): 1.87 | Phage binding ELISA signal, Anti-PSMA Fab with PSMA antigen (PSMA Fab [2]): 0.129

B33: Phage-3323 (peptide)
peptide: AGSMCTPMWMCTGF
phage binding ELISA signal (PSMA Fab [5]): 0.0744 | phage binding ELISA signal (PSMA Fab [6]): 1.85

B34: Phage-3279 (peptide)
peptide: GEPWCIPSWMCQGF
notes: as for B9
Phage binding ELISA signal, Anti-PSMA Fab in presence of PSMA (PSMA Fab (006 PSMA Fab) [7]): 0.091 | Phage binding ELISA signal, Anti-PSMA Fab (PSMA Fab (006 PSMA Fab) [8]): 1.9

B35: Phage-3324 (peptide)
peptide: VGPRCVPEWMCIGL
phage binding ELISA signal (PSMA Fab [5]): 0.0954 | phage binding ELISA signal (PSMA Fab [6]): 1.85

B36: Phage-3311 (peptide)
peptide: LEFRCVPEWMCVGF
Phage binding ELISA signal, Anti-PSMA Fab (PSMA Fab [1]): 1.87 | Phage binding ELISA signal, Anti-PSMA Fab with PSMA antigen (PSMA Fab [2]): 0.111

B37: Phage-3288 (peptide)
peptide: VDAYCKPAWMCLGF
notes: as for B2
Phage binding ELISA signal, Anti-PSMA Fab with PSMA antigen (PSMA Fab [3]): 0.0998 | Phage binding ELISA signal, Anti-PSMA Fab (PSMA Fab [4]): 1.89

B38: Phage-3309 (peptide)
peptide: VERACVPAWMCTGF
Phage binding ELISA signal, Anti-PSMA Fab (PSMA Fab [1]): 1.87 | Phage binding ELISA signal, Anti-PSMA Fab with PSMA antigen (PSMA Fab [2]): 0.0832

B39: Phage-3290 (peptide)
peptide: MDVLCRPEWMCTGF
notes: as for B2
Phage binding ELISA signal, Anti-PSMA Fab with PSMA antigen (PSMA Fab [3]): 0.0971 | Phage binding ELISA signal, Anti-PSMA Fab (PSMA Fab [4]): 1.89

B40: Phage-3280 (peptide)
peptide: WNHVCIPTWMCTGM
notes: as for B9
Phage binding ELISA signal, Anti-PSMA Fab in presence of PSMA (PSMA Fab (006 PSMA Fab) [7]): 0.0817 | Phage binding ELISA signal, Anti-PSMA Fab (PSMA Fab (006 PSMA Fab) [8]): 1.9
